Data from patent US20230192878A1 (published 2023).

Target: T1, B-cell maturation antigen (BCMA) (human, UniProt Q02223 1-184)
T1 sequence (looked up): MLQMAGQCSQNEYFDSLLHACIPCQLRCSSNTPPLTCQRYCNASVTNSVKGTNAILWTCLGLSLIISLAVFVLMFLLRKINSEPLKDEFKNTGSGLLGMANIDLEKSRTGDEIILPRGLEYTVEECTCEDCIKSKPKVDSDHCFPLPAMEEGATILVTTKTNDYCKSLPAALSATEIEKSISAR
Assay: cell-based or functional assay

B1: PF-06863135 (bispecific antibody, human IgG2)
heavy 1: EVQLVESGGGLVQPGGSLRLSCAASGFTFSDYYMTWVRQAPGKGLEWVAFIRNRARGYTSDHNPSVKGRFTISRDNAKNSLYLQMNSLRAEDTAVYYCARDRPSYYVLDYWGQGTTVTVSSASTKGPSVFPLAPCSRSTSESTAALGCLVKDYFPEPVTVSWNSGALTSGVHTFPAVLQSSGLYSLSSVVTVPSSNFGTQTYTCNVDHKPSNTKVDKTVERKCRVRCPRCPAPPVAGPSVFLFPPKPKDTLMISRTPEVTCVVVAVSHEDPEVQFNWYVDGVEVHNAKTKPREEQFNSTFRVVSVLTVVHQDWLNGKEYKCKVSNKGLPSSIEKTISKTKGQPREPQVYTLPPSREEMTKNQVSLTCLVKGFYPSDIAVEWESNGQPENNYKTTPPMLDSDGSFFLYSRLTVDKSRWQQGNVFSCSVMHEALHNHYTQKSLSLSPGK
light 1: not shown
heavy 2: EVQLLESGGGLVQPGGSLRLSCAASGFTFSSYPMSWVRQAPGKGLEWVSAIGGSGGSLPYADIVKGRFTISRDNSKNTLYLQMNSLRAEDTAVYYCARYWPMDIWGQGTLVTVSSASTKGPSVFPLAPCSRSTSESTAALGCLVKDYFPEPVTVSWNSGALTSGVHTFPAVLQSSGLYSLSSVVTVPSSNFGTQTYTCNVDHKPSNTKVDKTVERKCEVECPECPAPPVAGPSVFLFPPKPKDTLMISRTPEVTCVVVAVSHEDPEVQFNWYVDGVEVHNAKTKPREEQFNSTFRVVSVLTVVHQDWLNGKEYKCKVSNKGLPSSIEKTISKTKGQPREPQVYTLPPSREEMTKNQVSLTCEVKGFYPSDIAVEWESNGQPENNYKTTPPMLDSDGSFFLYSKLTVDKSRWQQGNVFSCSVMHEALHNHYTQKSLSLSPGK
light 2: EIVLTQSPGTLSLSPGERATLSCRASQSVSSSYLAWYQQKPGQAPRLLMYDASIRATGIPDRFSGSGSGTDFTLTISRLEPEDFAVYYCQQYQSWPLTFGQGTKVEIKRTVAAPSVFIFPPSDEQLKSGTASVVCLLNNFYPREAKVQWKVDNALQSGNSQESVTEQDSKDSTYSLSSTLTLSKADYEKHKVYACEVTHQGLSSPVTKSFNRGEC
- EC50 (nM) of cell viability, H929-Luc co-cultured with human CD3+ T cells, 72 hr, with GSI (nirogacestat): 0.0055 nM
- EC50 (nM) of cell viability, H929-Luc co-cultured with human CD3+ T cells, 72 hr, without GSI: 0.167 nM
- EC50 (nM) of cell viability, Molp8-Luc co-cultured with human CD3+ T cells, 72 hr, with GSI (nirogacestat): 0.0202 nM
- EC50 (nM) of cell viability, Molp8-Luc co-cultured with human CD3+ T cells, 72 hr, without GSI: 0.108 nM
- EC50 (nM) of cell viability, OPM2-Luc co-cultured with human CD3+ T cells, 72 hr, with GSI (nirogacestat): 0.0033 nM
- EC50 (nM) of cell viability, OPM2-Luc co-cultured with human CD3+ T cells, 72 hr, without GSI: 0.0528 nM
- EC50 (nM) of cell viability, RPMI8226-Luc co-cultured with human CD3+ T cells, 72 hr, with GSI (nirogacestat): 0.0017 nM
- EC50 (nM) of cell viability, RPMI8226-Luc co-cultured with human CD3+ T cells, 72 hr, without GSI: 0.0092 nM
